Laboratory results taken from patent US20220281997A1 (NANJING GENSCRIPT BIOTECH, published 2022).

B1: R166.E3 (antibody, V domains shown)
VH: QSLEESGGRLVTPGTPLTLTCTVSGIDLSSCVLIWVRQAPEKGLEWIGFIYGSGNAYYANWAKGRFTISKTSSTTVDLKITSPTTEDTATYFCARSQEDDSFGYGFNLWGQGTLVTVSS
VL: AYDMTQTPASVEVAVGGTVTINCQASQSIGTYLSWYQQKPGQPPKLLIYRASTLTSGVSSRFKGSGSGTQFTLTISGVECADAATYYCQEGYSDINVNNIFGGGTEVVVKG
notes: Rabbit monoclonal; also called clone R166.E3
B2: R166.H10 (antibody, V domains shown)
VH: QSLEESGGRLVTPGTPLTLTCTASGFSLSSYWMSWVRQAPGKGLEYIGIISGSGSTYYATWAKGRFTISKTSSTTVDLKITSPTTEDTATYFCARGNPHYSFGFNIWGPGTLVTVSL
VL: DIVMTQTPASVSEPVGGTVTINCQASESIYSWLSWYQQKPGQPPKLLIYSASYLASGVPSQFRGSGSGTEYTLTISDLECADAATYYCQYNYDSGDGITNGFGGGTEVVVKG
notes: Rabbit monoclonal; also called clone R166.H10
B3: R166.H9 (antibody, V domains shown)
VH: QSLEESGGRLVTPGTPLTLTCTASGFSLNNYNMIWVRQAPGEGLEWIGMIGDGDDAAWYASWAKGRFTISKTSTTVDLEVTSLTTEDTAIYFCARYLSFTRLDLWGQGTLVTVSS
VL: AVLTQTPSPVSAAVGGTVTINCQSSQSVYHNNWLAWYQQKPGQPPKLLIYGAATLASGVPSRFKGSGSGTQFTFTITDVQCDDVGTYYCAGVYNDDSENAFGGGTEVVVKG
notes: Rabbit monoclonal; also called clone R166.H9
B4: R166.E5 (antibody, V domains shown)
VH: QSLEESGGRLVTPGTPLTLTCTASGFSLSGYYMIWVRQAPGKGLEYIGIVTSSGSTHYASWANGRFAISKTSSTTVDLKMPSLTTEDTATYFCAREGGWAFDLWGQGTLVTVSS
VL: QVLTQTPFSVSTAVGGTVTINCQSSESVANSNWLSWYQQKPGQPPKLLIYWASKLASGVPSRFSGSGSGTQFTLTISGVQCADAATYYCQGGYTSDRRAFGGGTEVVVKG
notes: Rabbit monoclonal; also called clone R166.E5
B5: R166.A5 (antibody, V domains shown)
VH: QSVEESGGRLVTPGTPLTLTCTVSGFSLNNYTVIWVRQAPGKGLEWIGIIFGSGGTYYATWAEGRFTISRTSTTVDLKMTSPTTEDTATYFCARGYFGNTFWAMDPWGPGTLVTVSS
VL: NIVMTQTPASVSGAVGGTVTIKCQASQSISTYLSWYQQKPGQPPKLLIYQASELAYGVSSRFKGSGSGTEFTLTISGVECADAATYYCQQGYSDINVDNFFGGGTEVVVKG
notes: Rabbit monoclonal; also called clone R166.A5; antibody clone R166.A5
B6: R166.C5 (antibody, V domains shown)
VH: QSVEESGGRLVTPGTPLTLTCTVSGFSLRNFAMSWVRQAPGKGLEWIGIIYSGGTRDYATWAKGRFTISKTSTTVDLKMTSPTTEDTATYFCARDRSPDYSAAFLLWGQGTLVTVSS
VL: IVMTQTPSSKSVPVGDTVTINCQASESVYSNNHLAWFQQKPGQPPKLLIYSASTLESGVPSRFKGSGSGTQFTLTISGVQCDDAATYYCAGYKSSDTDGTSFGGGTEVVVKG
notes: Rabbit monoclonal; also called clone R166.C5; antibody clone R166.C5

molecular target: T1, AS154 VHH (camel-derived); test: indirect ELISA, VHH coated
T1 construct: One of the 10 different camel-derived nanobodies; not shown: His tag (VHH-His)
T1 sequence (VHH, as listed by the source): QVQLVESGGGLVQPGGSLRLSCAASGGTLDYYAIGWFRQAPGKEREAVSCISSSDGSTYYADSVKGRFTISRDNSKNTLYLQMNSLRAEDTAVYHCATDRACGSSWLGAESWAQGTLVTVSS
Description: (§1) The ELISA plate was coated with 10 different VHHs at […] in 100 μl/well of PBS at 4° C. overnight, respectively; the plate was washed with PBS-T (0.05% Tween) and blocked with 200 μl/well of PBST containing 1% BSA at 37° C. for 0.5 hours; the blocking solution was aspirated and discarded, and 100 μl of 1 μg/ml purified antibodies were added to the first well, diluted in a 3-fold gradient for a total of 11 test concentration gradients and incubated at room temperature for 1 hour; the plate was washed three times with PBST and incubated with 100 μl/well of goat anti-rabbit IgG conjugated with horseradish peroxidase (GenScript Goat Anti-Rabbit IgG Antibody (H&L) [HRP], pAb; CAT #: A00098) at 37° C. for 0.5 hours; the plate was washed five times with PBST, and then a TMB color developing solution was added; and the plate was incubated in the dark at room temperature for 15 minutes. The reaction was stopped by adding 50 μl of 1 M HCl stop solution. The plate was read at 450 nm using a microplate reader; and the binding abilities of 15 clones to VHH-His were obtained (as shown in FIGS. 6a and 6b). […] On one hand, the affinities of the antibody of the same camel-derived nanobody to different camel-derived nanobodies were different; on the other hand, the affinities of different antibodies of camel-derived nanobodies to the same camel-derived nanobody were different. However, on the whole, all the 15 purified antibodies can be recognized with 10 different camel-derived nanobodies.

Binder | binding result
B1 | binds
B2 | binds
B3 | binds
B4 | binds
B5 | binds

molecular target: T2, AS325 VHH (camel-derived); test: indirect ELISA, VHH coated
T2 construct: One of the 10 different camel-derived nanobodies; not shown: His tag (VHH-His)
T2 sequence (VHH, as listed by the source): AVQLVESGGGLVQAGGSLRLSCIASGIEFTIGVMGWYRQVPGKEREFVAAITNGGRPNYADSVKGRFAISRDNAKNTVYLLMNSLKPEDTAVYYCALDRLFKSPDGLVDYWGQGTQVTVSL
Description: as §1

Binder | binding result
B1 | binds
B2 | binds
B3 | binds
B4 | binds
B5 | binds

molecular target: T3, AS656 VHH (camel-derived); test: indirect ELISA, VHH coated
T3 construct: One of the 10 different camel-derived nanobodies; not shown: His tag (VHH-His)
T3 sequence (VHH, as listed by the source): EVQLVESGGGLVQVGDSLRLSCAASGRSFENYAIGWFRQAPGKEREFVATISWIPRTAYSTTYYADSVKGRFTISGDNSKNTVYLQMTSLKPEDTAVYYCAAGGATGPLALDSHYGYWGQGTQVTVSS
Description: as §1

Binder | binding result
B1 | binds
B2 | binds
B3 | binds
B4 | binds
B5 | binds

molecular target: T4, AS673 VHH (camel-derived); test: indirect ELISA, VHH coated
T4 construct: One of the 10 different camel-derived nanobodies; not shown: His tag (VHH-His)
T4 sequence (VHH, as listed by the source): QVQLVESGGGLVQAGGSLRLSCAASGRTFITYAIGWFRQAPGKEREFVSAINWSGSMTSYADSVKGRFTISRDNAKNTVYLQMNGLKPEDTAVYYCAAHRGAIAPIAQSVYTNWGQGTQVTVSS
Description: as §1

Binder | binding result
B1 | binds
B2 | binds
B3 | binds
B4 | binds
B5 | binds

molecular target: T5, AS587 VHH (camel-derived); test: indirect ELISA, VHH coated
T5 construct: One of the 10 different camel-derived nanobodies; not shown: His tag (VHH-His)
T5 sequence (VHH, as listed by the source): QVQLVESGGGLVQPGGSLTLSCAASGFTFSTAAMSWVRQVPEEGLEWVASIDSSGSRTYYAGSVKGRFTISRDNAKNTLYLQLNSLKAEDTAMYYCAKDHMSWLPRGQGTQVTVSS
Description: as §1

Binder | binding result
B1 | binds
B2 | binds
B3 | binds
B4 | binds
B5 | binds

molecular target: T6, AS588 VHH (camel-derived); test: indirect ELISA, VHH coated
T6 construct: One of the 10 different camel-derived nanobodies; not shown: His tag (VHH-His)
T6 sequence (VHH, as listed by the source): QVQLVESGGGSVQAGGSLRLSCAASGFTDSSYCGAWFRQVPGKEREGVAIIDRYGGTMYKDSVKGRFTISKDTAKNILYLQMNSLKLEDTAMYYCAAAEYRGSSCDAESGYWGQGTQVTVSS
Description: as §1

Binder | binding result
B1 | binds
B2 | binds
B3 | binds
B4 | binds
B5 | binds

molecular target: T7, AS200 VHH (camel-derived); test: indirect ELISA, VHH coated
T7 construct: One of the 10 different camel-derived nanobodies; not shown: His tag (VHH-His)
T7 sequence (VHH, as listed by the source): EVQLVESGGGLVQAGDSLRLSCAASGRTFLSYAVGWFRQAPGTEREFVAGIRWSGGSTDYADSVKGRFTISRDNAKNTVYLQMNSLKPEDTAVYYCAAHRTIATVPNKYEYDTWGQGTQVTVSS
Description: as §1

Binder | binding result
B1 | binds
B2 | binds
B3 | binds
B4 | binds
B5 | binds

molecular target: T8, AS988 VHH (camel-derived); test: indirect ELISA, VHH coated
T8 construct: One of the 10 different camel-derived nanobodies; not shown: His tag (VHH-His)
T8 sequence (VHH, as listed by the source): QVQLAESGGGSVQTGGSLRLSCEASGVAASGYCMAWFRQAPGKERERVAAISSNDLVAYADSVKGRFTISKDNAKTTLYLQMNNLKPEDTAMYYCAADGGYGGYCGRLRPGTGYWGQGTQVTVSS
Description: as §1

Binder | binding result
B1 | binds
B2 | binds
B3 | binds
B4 | binds
B5 | binds

molecular target: T9, AS675 VHH (camel-derived); test: indirect ELISA, VHH coated
T9 construct: One of the 10 different camel-derived nanobodies; not shown: His tag (VHH-His)
T9 sequence (VHH, as listed by the source): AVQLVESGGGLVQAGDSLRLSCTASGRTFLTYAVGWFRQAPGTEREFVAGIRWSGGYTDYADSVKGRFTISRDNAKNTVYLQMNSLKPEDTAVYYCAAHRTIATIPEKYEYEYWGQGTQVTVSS
Description: as §1

Binder | binding result
B1 | binds
B2 | binds
B3 | binds
B4 | binds
B5 | binds

molecular target: T10, AS519 VHH (camel-derived); test: indirect ELISA, VHH coated
T10 construct: One of the 10 different camel-derived nanobodies; not shown: His tag (VHH-His)
T10 sequence (VHH, as listed by the source): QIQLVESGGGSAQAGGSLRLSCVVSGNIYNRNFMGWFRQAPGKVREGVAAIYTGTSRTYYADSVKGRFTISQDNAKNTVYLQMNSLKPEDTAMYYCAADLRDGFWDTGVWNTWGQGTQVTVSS
Description: as §1

Binder | binding result
B1 | binds
B2 | binds
B3 | binds
B4 | binds
B5 | binds

molecular target: T1, AS154 VHH; test: SPR, Biacore 8K; VHH-His captured on anti-His antibody chip
Source text: (§2) The camel-derived nanobody with the lowest affinity to the cloned antibody was AS587, and the affinity reached 2.2 nmol.

Binder | binding result
B6 | binds

molecular target: T7, AS200 VHH; test: as above
Source text: as §2

Binder | binding result
B6 | binds

molecular target: T9, AS675 VHH; test: as above
Source text: as §2

Binder | binding result
B6 | binds

molecular target: T11, His-tag camel-derived nanobody AS718 VHH-His (camel-derived); test: indirect ELISA, AS718 VHH-His coated, hybridoma supernatant
T11 construct: Immunogen; recombinantly expressed with a C-terminal His tag; also called immunogen AS718; immunogen AS718 VHH-His; not shown: C-terminal His tag
T11 sequence (VHH, as listed by the source): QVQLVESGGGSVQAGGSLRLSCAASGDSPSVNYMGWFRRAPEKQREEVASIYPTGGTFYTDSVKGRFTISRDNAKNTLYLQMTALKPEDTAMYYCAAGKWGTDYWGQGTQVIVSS
Description: The rabbit spleen was extracted and homogenized to produce a single-cell suspension, and a single-cell suspension of myeloma cells was prepared at the same time. 1.0×10⁸ splenocytes were fused with 1.2×10⁵ myeloma cells by electrofusion; the fused cells were resuspended in 100 ml of DMEM/10% FBS culture medium containing hybridoma selective agents, thymidine, hypoxanthine and aminopterin, and transferred to a 150×96-well plate in a volume of 100 μl with a pipette; and the plate was incubated at 37° C. in 6% CO₂. After 9 days of incubation, the indirect ELISA was used to evaluate the binding ability of the antibody in the supernatant to VHH-His, indicating the presence of the antibody to VHH-His.
The ELISA plate was coated with 100 μl/well of 0.5 μg/ml VHH-His or His protein in PBS at 4° C. overnight; the plate was washed with PBS-T (0.05% Tween20) and blocked with 200 μl/well of PBST containing 1% BSA at 37° C. for 0.5 hours; the blocking solution was aspirated and discarded, and 100 μl of hybridoma cell culture supernatant was added to each well and then incubated at room temperature for 1 hour; after the incubation, the supernatant was discarded, and the plate was washed three times with PBST and incubated with 100 μl/well of goat anti-rabbit IgG conjugated with horseradish peroxidase (GenScript Goat Anti-Rabbit IgG Antibody (H&L) [HRP], pAb; CAT #: A00098) at 37° C. for 0.5 hours; the plate was washed five times with PBST, and then a TMB color developing solution was added; and the plate was incubated in the dark at room temperature for 15 minutes. The reaction was stopped by adding 50 μl of 1 M HCl stop solution. The plate was read at 450 nm using a microplate reader. In FIG. 3, by the mode of indirect ELISA, immunogen AS718 VHH-His was used to coat the ELISA detection plate, and the titers of the supernatant stock solutions of 15 parent clones were detected by OD450 reading, and the cross-reactions thereof with the His-tag protein were detected at the same time to exclude non-specific combinations. In the experiment, the positive serum was used as a positive control for immunogen AS718 VHH-His, and the Anti-His antibody was used as a positive control for detection target His-tag protein in the reverse screening. The detection value greater than 0.5 was determined to be positive, and the detection value less than 0.2 was determined to be negative.

Binder | binding result
B1 | binds
B2 | binds
B3 | binds
B4 | binds
B5 | binds
